Drawing on the supplement of paper PMC11811203, this text covers THAP1 transcriptional activity for 14 variants.

B1: THAP1; numbered along this chain (parent)
chain: MVQSCSAYGCKNRYDKDKPVSFHKFPLTRPSLCKEWEAAVRRKNFKPTKYSSICSEHFTPDCFKRECNNKLLKENAVPTIFLCTEPHDKKEDLLEPQEQLPPPPLPPPVSQVDAAIGLLMPPLQTPVNLSVFCDHNYTVEDTMHQRKRIHQLEQQVEKLRKKLKTAQQRCRRQERQLEKLKEVVHFQKEKDDVSERGYVILPNDYFEIVEVPA

In the data set the parent is B1. The experiment in a line: THAP1 transcriptional activity (GFP+/GFP- enrichment relative to wild-type constructs) (ratio to WT); higher = more THAP1 activity (PSMB5 reporter activation). To be noted: with PSMB5 promoter-GFP reporter. Put shortly:
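A site-saturation library of human THAP1 (residues 2–213, each changed to all 20 amino acids) was transduced by lentivirus at MOI ~0.3, in duplicate, into THAP1-knockout HEK-293T cells carrying mClover3 knocked in at endogenous PSMB5. After five days, BFP+ cells were sorted into GFP-dim and GFP-bright bins, and variants were counted by Illumina sequencing of genomic DNA amplicons. Activity is the replicate-mean bright/dim read fold change divided by the mean of wild-type synonymous constructs.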
Turning to MVQSCSAYGCKNRYDKDKPVSFHKFPLTRPSLCKEWEAAVRRKNFKPTKYSSICSEHFTPDCFKRECNNKLLKENAVPTIFLCTEPHDKKEDLLEPQEQLPPPPLPPPVSQVDAAIGLLMPPCQTPVNLSVFCDHNYTVEDTMHQRKRIHQLEQQVEKLRKKLKTAQQRCRRQERQLEKLKEVVHFQKEKDDVSERGYVILPNDYFEIVEVPA [L123C], the THAP1 transcriptional activity came out at 0.584. The figure for MVQSCSAYGCKNRYDKDKPVSFHKFPLTRPSLCKEWEAAVRRKNFKPTKYSSICSEHFTPDCFKRECNNKLLKENAVPTIFLCTEPHDKKEDLLEPQEQLPPPPLPPPVSQVDAAIGLLMPPAQTPVNLSVFCDHNYTVEDTMHQRKRIHQLEQQVEKLRKKLKTAQQRCRRQERQLEKLKEVVHFQKEKDDVSERGYVILPNDYFEIVEVPA [L123A] is 0.859; for MVQSCSAYGCKNRYDKDKPVSFHKFPLTRPSLCKEWEAAVRRKNFKPTKYSSICSEHFTPDCFKRECNNKLLKENAVPTIFLCTEPHDKKEDLLEPQEQLPPPPLPPPVSQVDAAIGLLMPRLQTPVNLSVFCDHNYTVEDTMHQRKRIHQLEQQVEKLRKKLKTAQQRCRRQERQLEKLKEVVHFQKEKDDVSERGYVILPNDYFEIVEVPA [P122R] it is 0.328; for MVQSCSAYGCKNRYDKDKPVSFHKFPLTRPSLCKEWEAAVRRKNFKPTKYSSICSEHFTPDCFKRECNNKLLKENAVPTIFLCTEPHDKKEDLLEPQEQLPPPPLPPPVSQVDAAIGLLMPSLQTPVNLSVFCDHNYTVEDTMHQRKRIHQLEQQVEKLRKKLKTAQQRCRRQERQLEKLKEVVHFQKEKDDVSERGYVILPNDYFEIVEVPA [P122S] it is 0.627. With MVQSCSAYGCKNRYDKDKPVSFHKFPLTRPSLCKEWEAAVRRKNFKPTKYSSICSEHFTPDCFKRECNNKLLKENAVPTIFLCTEPHDKKEDLLEPQEQLPPPPLPPPVSQVDAAIGLLMPQLQTPVNLSVFCDHNYTVEDTMHQRKRIHQLEQQVEKLRKKLKTAQQRCRRQERQLEKLKEVVHFQKEKDDVSERGYVILPNDYFEIVEVPA [P122Q] the figure was 0.769; with MVQSCSAYGCKNRYDKDKPVSFHKFPLTRPSLCKEWEAAVRRKNFKPTKYSSICSEHFTPDCFKRECNNKLLKENAVPTIFLCTEPHDKKEDLLEPQEQLPPPPLPPPVSQVDAAIGLLMPVLQTPVNLSVFCDHNYTVEDTMHQRKRIHQLEQQVEKLRKKLKTAQQRCRRQERQLEKLKEVVHFQKEKDDVSERGYVILPNDYFEIVEVPA [P122V], 0.214. The figure for MVQSCSAYGCKNRYDKDKPVSFHKFPLTRPSLCKEWEAAVRRKNFKPTKYSSICSEHFTPDCFKRECNNKLLKENAVPTIFLCTEPHDKKEDLLEPQEQLPPPPLPPPVSQVDAAIGLLMPKLQTPVNLSVFCDHNYTVEDTMHQRKRIHQLEQQVEKLRKKLKTAQQRCRRQERQLEKLKEVVHFQKEKDDVSERGYVILPNDYFEIVEVPA [P122K] is 0.728. MVQSCSAYGCKNRYDKDKPVSFHKFPLTRPSLCKEWEAAVRRKNFKPTKYSSICSEHFTPDCFKRECNNKLLKENAVPTIFLCTEPHDKKEDLLEPQEQLPPPPLPPPVSQVDAAIGLLMPLLQTPVNLSVFCDHNYTVEDTMHQRKRIHQLEQQVEKLRKKLKTAQQRCRRQERQLEKLKEVVHFQKEKDDVSERGYVILPNDYFEIVEVPA [P122L]: the THAP1 transcriptional activity was 0.692. The figure for MVQSCSAYGCKNRYDKDKPVSFHKFPLTRPSLCKEWEAAVRRKNFKPTKYSSICSEHFTPDCFKRECNNKLLKENAVPTIFLCTEPHDKKEDLLEPQEQLPPPPLPPPVSQVDAAIGLLMPTLQTPVNLSVFCDHNYTVEDTMHQRKRIHQLEQQVEKLRKKLKTAQQRCRRQERQLEKLKEVVHFQKEKDDVSERGYVILPNDYFEIVEVPA [P122T] is 0.614. The figure for MVQSCSAYGCKNRYDKDKPVSFHKFPLTRPSLCKEWEAAVRRKNFKPTKYSSICSEHFTPDCFKRECNNKLLKENAVPTIFLCTEPHDKKEDLLEPQEQLPPPPLPPPVSQVDAAIGLLMPMLQTPVNLSVFCDHNYTVEDTMHQRKRIHQLEQQVEKLRKKLKTAQQRCRRQERQLEKLKEVVHFQKEKDDVSERGYVILPNDYFEIVEVPA [P122M] is 0.226; for MVQSCSAYGCKNRYDKDKPVSFHKFPLTRPSLCKEWEAAVRRKNFKPTKYSSICSEHFTPDCFKRECNNKLLKENAVPTIFLCTEPHDKKEDLLEPQEQLPPPPLPPPVSQVDAAIGLLMPILQTPVNLSVFCDHNYTVEDTMHQRKRIHQLEQQVEKLRKKLKTAQQRCRRQERQLEKLKEVVHFQKEKDDVSERGYVILPNDYFEIVEVPA [P122I] it is 0.39; for MVQSCSAYGCKNRYDKDKPVSFHKFPLTRPSLCKEWEAAVRRKNFKPTKYSSICSEHFTPDCFKRECNNKLLKENAVPTIFLCTEPHDKKEDLLEPQEQLPPPPLPPPVSQVDAAIGLLMPHLQTPVNLSVFCDHNYTVEDTMHQRKRIHQLEQQVEKLRKKLKTAQQRCRRQERQLEKLKEVVHFQKEKDDVSERGYVILPNDYFEIVEVPA [P122H] it is 0.355. The figure for MVQSCSAYGCKNRYDKDKPVSFHKFPLTRPSLCKEWEAAVRRKNFKPTKYSSICSEHFTPDCFKRECNNKLLKENAVPTIFLCTEPHDKKEDLLEPQEQLPPPPLPPPVSQVDAAIGLLMPYLQTPVNLSVFCDHNYTVEDTMHQRKRIHQLEQQVEKLRKKLKTAQQRCRRQERQLEKLKEVVHFQKEKDDVSERGYVILPNDYFEIVEVPA [P122Y] is 0.254; for MVQSCSAYGCKNRYDKDKPVSFHKFPLTRPSLCKEWEAAVRRKNFKPTKYSSICSEHFTPDCFKRECNNKLLKENAVPTIFLCTEPHDKKEDLLEPQEQLPPPPLPPPVSQVDAAIGLLMPWLQTPVNLSVFCDHNYTVEDTMHQRKRIHQLEQQVEKLRKKLKTAQQRCRRQERQLEKLKEVVHFQKEKDDVSERGYVILPNDYFEIVEVPA [P122W] it is 0.159.
